In series [1] the target is T1, Tn3 resolvase (crystallized) (Tn3 transposon, UniProt P0ADI2 1-185). In words: X-ray crystallography; Form I, ~3.4 A, one dimer-DNA complex per asymmetric unit; Crystal DNA annealed at 1 mM in TE (Tris-HCl pH 8.0, EDTA), 50 mM NaCl; footprinting: synapses crosslinked with glutaraldehyde, DNase I + 10 mM MgCl2; binding buffers and temperature not in material. The note with it: protein: recombinant; chain copies: 2; label: none for native; 29 bp, 1-nt 5' overhang at each end.

Series [2] concerns the target T1, Tn3 resolvase (crystallized). The series can be described thus: X-ray crystallography; Form II, ~4.0/4.5/4.0 A, two dimer-DNA complexes per asymmetric unit; Crystal DNA annealed at 1 mM in TE (Tris-HCl pH 8.0, EDTA), 50 mM NaCl; footprinting: synapses crosslinked with glutaraldehyde, DNase I + 10 mM MgCl2; binding buffers and temperature not in material. As to conditions: protein: recombinant; chain copies: 2; label: none for native; 25 bp, 2-nt 5' overhang at each end.

T1 sequence (P0ADI2 whole entry): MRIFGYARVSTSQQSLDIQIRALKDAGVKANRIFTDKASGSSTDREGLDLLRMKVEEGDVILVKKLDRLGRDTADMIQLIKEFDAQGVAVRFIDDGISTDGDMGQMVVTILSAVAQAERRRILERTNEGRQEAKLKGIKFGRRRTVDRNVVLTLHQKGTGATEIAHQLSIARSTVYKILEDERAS

B1: Tn3 res site III, Form I duplex (dsDNA)
DNA 1: TCGTGTCTGATATTCGATTTAAGGTACATT
DNA 2: AAATGTACCTTAAATCGAATATCAGACACG
On to B1, for which, in series [1], the binding result was “binds”.

B2: Tn3 res site III, Form II duplex (dsDNA)
DNA 1: ATTGTCTGATATTCGATTTAAGGTACA
DNA 2: ATTGTACCTTAAATCGAATATCAGACA
Take B2: the binding result in series [2] is listed as “binds”.

Values taken from article PMC9943657, “Structural basis for topological regulation of Tn3 resolvase”.
